The DeepSol protein solubility set

Experiment: soluble on expression in E. coli; label from the status in PepcDB or PDB records

| Sequence | soluble on expression in E. coli |
| --- | --- |
| MGGGKYETQMCVIIIEDIFGKIVAKVMETILKESCQLSTLFYKLKGQISNTLIRKSVSTLINFGFVTFHLDTNNRTTYVADSDQIQHVISSPRACLIAKTLYGPAAESICVELISQGRLTVSETIRRIQATDETAVFSDIKKSFEELAAAHFLIRVPSVESEIHGCPQFVTNFDPFAISTNIMEKKEGTSTSDSTSNNRKRKADSTPEDGDAGQYWRINWIRFNGYLRDELIIDYLIGGGSKGTMTNLNVKKEETIEDPQGDRTQYITQNVAHLMFKINETRAKPMSMESITASLTDLQRLVKENGLNLAKPDIELACQILVDESDGIIRKLGESNGGIFIVDIRRAIRQICRHHCESLIREQFEGRAIRVMRLLENRHYLDEEQVEKLSMMSGKEAREMLYALVEEGYVFNKPVGRSNDFQPARTFYLYYVDLPRTIRGLVEYTCKLVRNLIVRQRHERTENKSVLDKDANVQPIIENIRSSEQLDEASKLAQIAEVEEMYLPGPDRAQLNRFRKAQATLLAAQDQSIRVLLSFKLFLASGEN | not soluble |
| MGGITMTAVVSNRDKINFHEVADHYHSNKIIFGIKFLKNWALERLASCAPVPSWRAKLHKMRGVNIGENVYIGYDVIFDRIHPEMITVGDYAEIGDRCILSAHSRGSLTTRQAYPRSIAPIKIGRGVSVNPGCIITQGVEIGDNSIIGVGSVVSRNISPNSLALGYPAKVIKKLDG | soluble |
| MGGSGVEGLSGKRCWLAVRNASLCQFLETSLQRSGIVVTTYEGQEPTPEDVLITDEVVSKKWQGRAVVTFCRRHIGIPLEKAPGEWVHSVAAPHELPALLARIYLIEMESDDPANALPSTDKAVSDNDDMMILVVDDHPINRRLLADQLGSLGYQCKTANDGVDALNVLSKNHIDIVLSDVNMPNMDGYRLTQRIRQLGLTLPVIGVTANALAEEKQRCLESGMDSCLSKPVTLDVIKQTLTLYAERVRKSRDS | soluble |
| MGHHHHHHGGHMSLNISDVAKITGLTSKAIRFYEEKGLVTPPMRSENGYRTYTQQHLNELTLLRQARQVGFNLEESGELVNLFNDPQRHSADVKRRTLEKVAEIERHIEELQSMRDQLLALANACPGDDSADCPIIENLSGCCHHRAGEGGS | soluble |
| MGHHHHHHGGHMSLSTKAKQQSSQQMTRGFEPYQETKGEEYMSERMRAHFTAILNKWKQELMEEVDRTVHHMQDEAANFPDPADRASQEEEFSLELRARDRERKLIKKIDETLQLIEDEEYGWCDSCGVEIGIRRLEARPTATLCIDCKTLAEIREKQLGSEGGS | soluble |
| MGHHHHHHHHHHSSGHIEGRHMLGLGASDFEFGVDPSADPELALALRVSMEEQRQRQEEEARRAAAASAAEAGIATTGTEDSDDALLKMTISQQEFGRTGLPDLSSMTEEEQIAYAMQMSLQGAEFGQAESA | soluble |
| MGHHHHHHHHSSGHIEGRHMAHLLIVNVASHGLILPTLTVVTELVRRGHRVSYVTAGGFAEPVRAAGATVVPYQSEIIDADAAEVFGSDDLGVRPHLMYLRENVSVLRATAEALDGDVPDLVLYDDFPFIAGQLLAARWRRPAVRLSAAFASNEHYSFSQDMVTLAGTIDPLDLPVFRDTLRDLLAEHGLSRSVVDCWNHVEQLNLVFVPKAFQIAGDTFDDRFVFVGPCFDDRRFLGEWTRPADDLPVVLVSLGTTFNDRPGFFRDCARAFDGQPWHVVMTLGGQVDPAALGDLPPNVEAHRWVPHVKVLEQATVCVTHGGMGTLMEALYWGRPLVVVPQSFDVQPMARRVDQLGLGAVLPGEKADGDTLLAAVGAVAADPALLARVEAMRGHVRRAGGAARAADAVEAYLARAR | soluble |
| MGHHHHHHMEARNMTPFTYFSLPMQKLFLRNQAAVRNKPYAKYFRSEMRVPLSAVRKIQQGPMALEDTLTPSIEDINRLLEPDFVSEESGYALLPGPMAYVQSRKFFPGCTAQMFKWWFIWHPAESERYTLWFPYAHVSNPCVHHQRLRDESLSFEERLYGNTFCASEYVGDRLMHLHIDFQQPASLGLNTDLYREAKIDGSVSALMSLADHPEVPVSLMVHLFKEVPDGMYLTSRYWVGAHPSMARFPGAEKAASLLKENGFGEAELETLAYEFAVHDMCEFNHLASFLPDLYREFGTPAA | soluble |
| MGHHHHHHSGEVKPEVKPETHINLKVSDGSSEIFFKIKKTTPLRRLMEAFAKRQGKEMDSLRFLYDGIRIQADQTPEDLDMEDNDIIEAHREQIGGMRTYLDLLQHVLDHGVDRDDRTGTGTRSVFGYQMRFDLEEGFPVLTTKKLHLRSIIHELLWFLKGDTNIAYLKENGVTIWDEWADENGDLGPVYGYQWRSWPAPDGRHIDQIANLLKMLHTNPQSRRLIVSAWNPALVDEMALPPCHCLFQFYVANGRLSCQLYQRSADIFLGVPFNIASYALLTMMIAQVTGLKPGEFIHTLGDAHIYSNHFEQARLQLTRTPKKLPVMHINPDVKDLFAFRFEDFRLDGYEADPTIKAPIAV | soluble |
| MGHHHHHHSHAESHLQSSLITASQFFEIWLHFDADGSGYLEGKELQNLIQELQQARKKAGLELSPEMKTFVDQYGQRDDGKIGIVELAHVLPTEENFLLLFRCQQLKSCEEFMKTWRKYDTDHSGFIETEELKNFLKDLLEKANKTVDDTKLAEYTDLMLKLFDSNNDGKLELTEMARLLPVQENFLLKFQGIKMCGKEFNKAFELYDQDGNGYIDENELDALLKDLCEKNKQDLDINNITTYKKNIMALSDGGKLYRTDLALILCAGDN | soluble |
| MGHHHHHHSHALQVDISDALSERDKVKFTVHTKSSLPNFKQNEFSVVRQHEEFIWLHDSFVENEDYAGYIIPPAPPRPDFDASREKLQKLGEGEGSMTKEEFTKMKQELEAEYLAIFKKTVAMHEVFLCRVAAHPILRRDLNFHVFLEYNQDLSVRGKNKKEKLEDFFKNMVKSADGVIVSGVKDVDDFFEHERTFLLEYHNRVKDASAKSDRMTRSHKSAADDYNRIGSSLYALGT | not soluble |
| MGHHHHHHSHDFIPRGAFGKVYLAQDIKTKKRMACKLIPVDQFKPSDVEIQACFRHENIAELYGAVLWGETVHLFMEAGEGGSVLEKLESCGPMREFEIIWVTKHVLKGLDFLHSKKVIHH | not soluble |
| MGHHHHHHSHIGSFPLPKGITREWVERNLHTKEYEEMVQRAFLMKAKVLDVPTYPQFRDMIEMFMQPIKANQVEPYLIDERKAVIPELEYVEKMSVEAVRVCITGPFELYYREFGGVIYEDILLNLAESVRRFVENAAKHENVVCISIDEPSLGIAPDLQPDEELLQKALDYKVKQDVQIHLHEPLYYEKILETSVDVIGIECAKKPENMDFIDAEAVASAEKKLRIGVARSDIDGIIAEFNALHGVNAWGNEELISLAIDEIEPVEKIAERISKAKERFGDLLAYIGPDCGLFSFPSQELALQLLENVRKAVRE | not soluble |
| MGHHHHHHSHKIRVAHTPDADDAFMFYAMTHGKVDTWLEIEHVIEDIETLNRKAFNAEYEVTAISAHAYALLDDKYRILSAGASVGDGYGPVVVAKSEISLDGKRIAVPGRYTTANLLLKLAVEDFEPVEMPFDRIIQAVLDEEVDAGLLIHEGQITYADYGLKCVLDLWDWWSEQVKLPLPLGLNAIRRDLSVEVQEEFLRAMRESIAFAIENPDEAIEYAMKYSRGLDRERAKRFAMMYVNDYTYNMPESVDAALKKLYEMAEAKGLIKMPKLDILRL | soluble |
| MGHHHHHHSHKVENFEAAVHFYGKAIELNPANAVYFCNRAAAYSKLGNYAGAVQDCERAICIDPAYSKAYGRMGLALSSLNKHVEAVAYYKKALELDPDNETYKSNLKIAELKLREAPSPTGGVGSFDIAGLLNNPGFMSMASNLMNNPQIQQLMSGMISGGNNPLGTPGTSPSQNDLASLIQAGQQFAQQMQQQNPELIEQLRSQIRSRTP | not soluble |
| MGHHHHHHSHLRYMKESQVLLTLTNPVENLTHVTLFECEEGDPDDINSTAKVVVPPKELVLAGKDAAAEYDELAEPQDFQDDPDIIAFRKANKVGIFIKVTPQREEGEVTVCFKMKHDFKNLAAPIRPIEESDQGTEVIWLTQHVELSLGPLLP | soluble |
| MGHHHHHHSHMAATSGTDEPVSGELVSVAHALSLPAESYGNDPDIEMAWAMRAMQHAEVYYKLISSVDPQFLKLTKVDDQIYSEFRKNFETLRIDVLDPEELKSESAKEKWRPFCLKFNGIVEDFNYGTLLRLDCSQGYTEENTIFAPRIQFFAIEIARNREGYNKAVYISVQDKEGEKGVNNGGEKRADSGEEENTKNGGEKGADSGEEKEEGINREDKTDKGGEKGKEADKEINKSGEKAM | not soluble |
| MGHHHHHHSHMAFILCPLTCPGECEGSTGKLECCLCLPSQWAVLTAAPHPYRWSQEAGRVGEGKIGKTGRPRPRQNSLSSLHFWSPVVMCL | not soluble |
| MGHHHHHHSHMAMRQTPLTCSGHTRPVVDLAFSGITPYGYFLISACKDGKPMLRQGDTGDWIGTFLGHKGAVWGATLNKDATKAATAAADFTAKVWDAVSGDELMTLAHKHIVKTVDFTQDSNYLLTGGQDKLLRIYDLNKPEAEPKEISGHTSGIKKALWCSEDKQILSADDKTVRLWDHATMTEVKSLNFNMSVSSMEYIPEGEILVITYGRSIAFHSAVSLDPIKSFEAPATINSASLHPEKEFLVAGGEDFKLYKYDYNSGEELESYKGHFGPIHCVRFSPDGELYASGSEDGTLRLWQTVVGKTYGLWKCVLPEEDSGELAKPK | not soluble |
| MGHHHHHHSHMASETHNVKKRNFCNKIEDHFIDLPRKKISNFTNKNMKEVKKSPKQLAAYINRTVGQTVKSPDKLRKVIYRRKKVHHPFPNPCYRKKQSPGSGGCDMANKENELACAGHLPEKLHHDSRTYLVNSSDSGSSQTESPSSKYSGFFSEVSQDHETMAQVLFSRNMRLNVALTFWRKRSISELVAYLLRIEDLGVVVDCLPVLTNCLQEEKQYISLGCCVDLLPLVKSLLKSKFEEYVIVGLNWLQAVIKRWWSELSSKTEIINDGNIQILKQQLSGLWEQENHLTLVPGYTGNIAKDVDAYLLQLH | not soluble |
| MGHHHHHHSHMAVEDEGLRVFQSVKIKIGEAKNLPSYPGPSKMRDCYCTVNLDQEEVFRTKIVEKSLCPFYGEDFYCEIPRSFRHLSFYIFDRDVFRRDSIIGKVAIQKEDLQKYHNRDTWFQLQHVDADSEVQGKVHLELRLSEVITDTGVVCHKLATRIVECQGLPIVNGQCDPYATVTLAGPFRSEAKKTKV | not soluble |
| MGHHHHHHSHMEFIVDSVDKTMHIGRQLGSLVNKGDILCLTGDLGTGKTHISKGIAEGLGIDEHITSPTFNIVNEYHSGRLTLYHFDVYRVNDPDEIEAIGFDEYIFGDGVSLIEWANYIEELIPEEYIHIKIEKLPDMGENFRKITINGYGDRYNYIKEIKE | not soluble |
| MGHHHHHHSHMEGSFSDGGALPEGLAEEAEPQGAAWSGDSGTVSQSHSSASGPWEDEGAEDGAPGRDLPLLRRAAAGYAACLLPGAGARPEVEALDASLEDLLTRVDEFVGMLDMLRGDSSHVVSEGVPRIHAKAAEMRRIYSRIDRLEAFVRMVGGRVARMEEQVTKAEAELGTFPRAFKKLLHTMNVPSLFSKSAPSRPQQAGYEAPVLFRTEDYFPCCSERPQL | not soluble |
| MGHHHHHHSHMEKALLGACDCTQIVKPSGVHLKLVLRFSDFGKAMFKPMRQQRDEETPVDFFYFIDFQRHNAEIAAFHLDRILDFRRVPPTVGRIVNVTKEILEVTKNEILQSVFFVSPASNVCFFAKCPYMCKTEYAVCGNPHLLEGSLSAFLPSLNLAPRLSVPNPWIRSYTLAGKEEWEVNPLYCDTVKQIYPYNNSQRLLNVIDMAIFDFLIGNMDRHHYEMFTKFGDDGFLIHLDNARGFGRHSHDEISILSPLSQCCMIKKKTLLHLQLLAQADYRLSDVMRESLLEDQLSPVLTEPHLLALDRRLQTILRTVEGCIVAHGQQSVIV | soluble |
